Test: yeast display, Sf9 membrane polyspecificity reagent, FACS + sequencing; frameworks hold sequencing errors
In short: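 In a synthetic yeast display library (Saccharomyces cerevisiae BJ5465), nanobody expression was induced with galactose for 36–48 hours. FACS gates were set low and high (top ~1%) using anti-HA fluorescence for expression and streptavidin fluorescence for binding of the Sf9 membrane reagent. Each polyreactivity label is drawn from the gate of origin.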

| Sequence | polyreactivity (PSR sort gate) |
| --- | --- |
| QVQLVESGGGLVQAGGSLRLSCAASGFTFYHYAMGWSRQAPGKESELVATISKRGGSTYYADSVKGRFTISRDNAKNTVYLQMNSLKPQDTAVFYCAAKIYWSSLKMDYWGQGTQVTVSS | high polyreactivity |
| QVQLVESGGGLVQAGGSLRLSCAASGRTFNGYAMGWYRQAPGKERELVARITYRGGGTYYADSVKGRFTISRDNAKNTVYLQMNSLKPEDTAVYYCNARGVQYRYYYWGQGTQVTVSS | high polyreactivity |
| QVQLVESGGGLVQAGGSLRLSCAASGSIFEGNAMGWDRQAPGKERELVASISGDGSTNYADSVKGRFTISRDNAKITVYLQMNCLKPEDTAVYYCAASFRWYGTVRYPYEMYYWGQGTQVTVSS | low polyreactivity |
| QVQLVESGGGLVQAGGSLRLSCAASGRIFIDYAMGWYRQAPGKERELVATITSSGGSTYYADSVKGRFTISRDNAKNTVYLQMNSLKPEDTAVYYCNKEGSYDYDFWGQGTQVTVSS | low polyreactivity |
| QVQLVESGGGLVQAGGSLRLSCAASGSTFRYNTMGWYRQAPGTERELVATISWRGGRTYYADSVKGRFTISRDNAKNTVYLQMNSLKPEDTAVYYCASIATVPRDYGGNYWGQGTQVTVSS | low polyreactivity |
| QFQLVESGGGVVQAGGRLRLSCAASGSNFPRYAMGWYIQAPGKERELVAAISSSGGDTYYADSVKGLYTISRDNAKNTVYLQMNSLKPEDTAVYYCAALGAFPSLEFDYCGQGTQVTVSS | low polyreactivity |
| QVQLVESGGGLVQAGGSLRLSCAASGSIFYYNAMGWYRQPPGKERELVAAISWSGDSTYYADSVKGRFTISRDNAKNTVYLQMNSLKPEDTAVYYCNTELVPWTEYWYDYWGQGNQVTVSS | low polyreactivity |
| QVQLVESGGGLVQAGGSLRLSCAASGFTFYYYTMGWYRQAPGKERELVAAITISGGSTYYADSVKGRFTISRDNAKNTVYLQMNSLKPEDSAVYYCNADYQWYLGGYDFWGQGTQVTVSS | high polyreactivity |
| QVQLVESGGVLVQAGGSLRLSCAASGFTFVAYTMGWYRQAPGKDRELVASIPNVGSTNYADSVKGRFTISRDKAMNTVYLLMNSLKPEDTAVYYCAAEYLGWHYLYLPFRDYDSWGQGTQVTVSS | low polyreactivity |
| QVQLVESGGGLVQGGGSLRLSFAASGSIFWRNAMGWYRQAPGKERELVAAITSGGSTYYADSVKGRFTISRDNAKNTVYLQMNSLKPEDTAVYYCAAGGRWARWLFPSRYDYWGQGTQVTVSS | low polyreactivity |
| QVPLVESVGGLVQAGGSLRLSCAASGTIFFGYAMGSYRQAPGKERDLVASISSGDTTYYADSVKGRFTISRDNAKNTVYLQMNSLKPEDTAVYYCAAREGQLWEDGDYWGQGTQVTVSS | low polyreactivity |
| QVQLVESGGGLVQAGGSLRLSCAASGSTFNYNAMGWYRQAPGKERELVADISWRGGITYYADSVKGRFTISRDNAKNTVYLQMNSLKPEDTAVYYCNADAESFDDGYWGQGTQVTVSS | low polyreactivity |
| QVPLVESGGGLVQAGGSLRLSCAASGSIFYPYAMGWYRQAPGKERELVASITWSGGSTYYADSVKGRITISRDNATNSVYRQMNSLKPEDTAVYYCAADEKLYITGYDYWGQGTQVTVSS | low polyreactivity |
| QVQLVESGGGLVQAGGSLRLSCAASGSTFQINAMGWYRQAHGKERALVAAIDGGGDTYYADSVKGRFTISRDNAKKTDYLQMNSLKPEDTAVYYCAAERRIYYQDFNYCGQGTQVTVSS | low polyreactivity |
| QVQLVESGGGLVQAGGSLRLSCAASGSIFRTNAMGWYRQAPGKEREFVASISSDSGNTYYADSVKGRFTISRDNAKNTVYLQMNSLKPEDTAVYYCARRKVRYWSYRAANYYWGQGTQVTVSS | low polyreactivity |
| QVQLVESGGGLVQAGGSLRLSCAASGSIFERYTMGWYRQAPGKERELVAAISRSGGRTYYADSVKGRFTISRDNAKNTVYLQMNSLKPEDTAVYYCARTRVASKGYDYWGQGTQVTVSS | high polyreactivity |
| QVQLVESGGGLVQAGGSLRLSCAASGITYDKYAMGWYRQAPGKERELVAAITKSSGSTYYADSVKGRFTISRDNAKNTVYFQMNSLKPEDTAVYYCAAGIVYGYYYWGQGTQVTVSS | high polyreactivity |
